The values below come from paper PMC12264551 (Molecular Pharmacology, 2025).

In assay [1] the target is T1, calcitonin receptor (Homo sapiens, UniProt P30988).
T1 sequence (P30988 25-474): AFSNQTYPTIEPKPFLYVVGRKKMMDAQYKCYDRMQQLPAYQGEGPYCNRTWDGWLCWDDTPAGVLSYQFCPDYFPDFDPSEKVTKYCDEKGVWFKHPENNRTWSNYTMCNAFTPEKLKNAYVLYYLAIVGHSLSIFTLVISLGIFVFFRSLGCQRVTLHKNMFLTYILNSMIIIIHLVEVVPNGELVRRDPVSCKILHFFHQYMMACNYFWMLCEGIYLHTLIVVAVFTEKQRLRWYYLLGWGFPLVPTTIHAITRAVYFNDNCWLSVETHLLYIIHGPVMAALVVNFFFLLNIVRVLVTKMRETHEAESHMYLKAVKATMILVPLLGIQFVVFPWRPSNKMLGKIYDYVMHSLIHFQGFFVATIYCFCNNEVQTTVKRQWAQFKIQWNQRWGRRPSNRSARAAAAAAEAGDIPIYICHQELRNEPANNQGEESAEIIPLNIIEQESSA
As to the kind of experiment: Live cell cAMP accumulation (GloSensor), UMR-106 cells transfected with calcitonin receptor. The class given is cell-based. Also on record: host or cells: UMR-106 (rat osteoblast-like) in A1; COS-7 (African monkey kidney) in A3. As to conditions: calcitonin + vehicle, Fig. 1B, fraction of greatest slope, best-fit ± SEM, n = 3.

Assay [2] has as its target T1, calcitonin receptor. In words: Live cell cAMP accumulation (GloSensor), MCF-7 cells with endogenous calcitonin receptor. The class given is cell-based. Also on record: COS-7 (African monkey kidney) in A3. The following applies: calcitonin + vehicle, Fig. 1D, fraction of greatest slope, ± SEM, n = 3.
In assay [3] the target is T1, calcitonin receptor. As to the kind of experiment: Live cell cAMP accumulation (GloSensor), COS-7 cells transfected with calcitonin receptor. As to conditions: calcitonin + vehicle, Fig. 1F, fraction of greatest slope, ± SEM, n = 3. Also on record: host or cells: COS-7 (African monkey kidney) in A3. Type of assay: cell-based.
Assay [4] deals with calcitonin receptor (UniProt P30988).
Assay [5] has as its target calcitonin receptor, endogenous in MCF-7 cells (human (endogenous in MCF-7)) (UniProt P30988).
The target in assay [6] is T2, vasoactive intestinal polypeptide receptor 2 (UniProt P41587).
T2 sequence: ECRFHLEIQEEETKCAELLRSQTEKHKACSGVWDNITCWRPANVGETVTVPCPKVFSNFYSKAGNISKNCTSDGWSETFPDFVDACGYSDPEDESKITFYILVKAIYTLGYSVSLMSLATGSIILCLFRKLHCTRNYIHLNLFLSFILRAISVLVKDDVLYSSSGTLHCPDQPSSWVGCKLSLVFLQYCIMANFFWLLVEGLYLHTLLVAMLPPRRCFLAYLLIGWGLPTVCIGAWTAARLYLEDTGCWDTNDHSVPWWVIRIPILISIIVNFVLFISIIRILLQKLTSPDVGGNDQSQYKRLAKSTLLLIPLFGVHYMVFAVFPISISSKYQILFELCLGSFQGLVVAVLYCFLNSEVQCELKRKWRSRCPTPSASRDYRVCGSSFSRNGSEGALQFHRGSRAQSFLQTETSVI

Assay [7] deals with T3, vasoactive intestinal polypeptide receptor 1 (UniProt P32241).
T3 sequence: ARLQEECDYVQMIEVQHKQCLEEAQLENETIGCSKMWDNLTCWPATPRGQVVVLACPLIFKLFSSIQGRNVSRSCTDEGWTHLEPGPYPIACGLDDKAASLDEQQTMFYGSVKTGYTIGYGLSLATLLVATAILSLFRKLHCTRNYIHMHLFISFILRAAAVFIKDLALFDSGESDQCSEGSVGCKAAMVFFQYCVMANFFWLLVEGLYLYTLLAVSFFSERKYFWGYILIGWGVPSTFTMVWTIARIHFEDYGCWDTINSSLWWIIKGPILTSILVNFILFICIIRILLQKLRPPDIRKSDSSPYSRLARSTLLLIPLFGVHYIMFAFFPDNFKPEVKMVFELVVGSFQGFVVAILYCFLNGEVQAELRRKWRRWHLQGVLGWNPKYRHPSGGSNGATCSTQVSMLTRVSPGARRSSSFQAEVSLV

The target in assay [8] is T4, VPAC1R, endogenous in SaOS-2 cells (human (endogenous in SaOS-2)) (UniProt P32241).
T4 sequence: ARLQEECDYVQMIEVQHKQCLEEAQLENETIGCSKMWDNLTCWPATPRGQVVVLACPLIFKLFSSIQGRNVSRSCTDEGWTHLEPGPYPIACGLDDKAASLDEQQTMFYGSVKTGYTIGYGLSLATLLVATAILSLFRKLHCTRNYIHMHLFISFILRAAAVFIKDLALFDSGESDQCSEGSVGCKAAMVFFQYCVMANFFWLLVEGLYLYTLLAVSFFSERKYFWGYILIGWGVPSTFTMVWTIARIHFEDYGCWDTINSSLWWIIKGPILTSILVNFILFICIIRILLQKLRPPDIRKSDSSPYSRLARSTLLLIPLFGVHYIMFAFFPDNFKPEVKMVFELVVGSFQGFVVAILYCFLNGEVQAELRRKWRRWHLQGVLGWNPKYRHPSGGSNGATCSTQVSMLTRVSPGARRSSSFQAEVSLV

For `CC(C)C[C@H](NC(=O)[C@H](CCCCN)NC(=O)CNC(=O)[C@H](CC(C)C)NC(=O)[C@@H](NC(=O)[C@@H]1CSSC[C@H](N)C(=O)N[C@@H](CO)C(=O)N[C@@H](CC(N)=O)C(=O)N[C@@H](CC(C)C)C(=O)N[C@@H](CO)C(=O)N[C@@H]([C@@H](C)O)C(=O)N1)C(C)C)C(=O)N[C@@H](CO)C(=O)N[C@@H](CCC(N)=O)C(=O)N[C@@H](CCC(=O)O)C(=O)N[C@@H](CC(C)C)C(=O)N[C@@H](Cc1c[nH]cn1)C(=O)N[C@@H](CCCCN)C(=O)N[C@@H](CC(C)C)C(=O)N[C@@H](CCC(N)=O)C(=O)N[C@H](C(=O)N[C@@H](Cc1ccc(O)cc1)C(=O)N1CCC[C@H]1C(=O)N[C@@H](CCCNC(=N)N)C(=O)N[C@H](C(=O)N[C@@H](CC(N)=O)C(=O)N[C@H](C(=O)NCC(=O)N[C@@H](CO)C(=O)NCC(=O)N[C@H](C(=O)N1CCC[C@H]1C(N)=O)[C@@H](C)O)[C@@H](C)O)[C@@H](C)O)[C@@H](C)O` [calcitonin, Salmon calcitonin], the “Normalized Maximum” value at calcitonin receptor [1] was 0.69 ± 0.04; on calcitonin receptor [2], 0.68 ± 0.05; on calcitonin receptor [3], 0.69 ± 0.04.

For the molecule Salmon calcitonin (peptide), in the assay with calcitonin receptor [4], the −LogEC50 of calcitonin, maximum rate of cAMP accumulation (GloSensor), COS-7 cells transfected with calcitonin receptor, vehicle (Fig. 1F) (−LogEC50 (EC50 in M)) came out at 9.64; the −LogEC50 of calcitonin, maximum rate of cAMP accumulation (GloSensor), COS-7 cells transfected with calcitonin receptor, with ATP 1.5 mM (Fig. 1F) (−LogEC50 (EC50 in M)) stood at 10.5; the −LogEC50 of calcitonin, maximum rate of cAMP accumulation (GloSensor), UMR-106 cells transfected with calcitonin receptor, vehicle (Fig. 1B) (−LogEC50 (EC50 in M)) worked out at 9.15; the −LogEC50 of calcitonin, maximum rate of cAMP accumulation (GloSensor), UMR-106 cells transfected with calcitonin receptor, with ATP 1.5 mM (Fig. 1B) (−LogEC50 (EC50 in M)) turned out to be 10.3. Moreover, in assay [5], the −LogEC50 of calcitonin, maximum rate of cAMP accumulation (GloSensor), MCF-7 cells (endogenous calcitonin receptor), vehicle (Fig. 1D) (−LogEC50 (EC50 in M)) was determined as 8.19 and the −LogEC50 of calcitonin, maximum rate of cAMP accumulation (GloSensor), MCF-7 cells (endogenous calcitonin receptor), with ATP 1.5 mM (Fig. 1D) (−LogEC50 (EC50 in M)) turned out to be 9.86.

Consider HSDAVFTDNYTRLRKQMAVKKYLNSILN [vasoactive intestinal peptide], for which, in assay [6], the −LogEC50 of VIP, maximum rate of cAMP accumulation (GloSensor), COS-7 cells transfected with VPAC2R, vehicle (Fig. 6H) (−LogEC50 (EC50 in M)) came to 8.9 and the −LogEC50 of VIP, maximum rate of cAMP accumulation (GloSensor), COS-7 cells transfected with VPAC2R, with ATP 1.5 mM (Fig. 6H) (−LogEC50 (EC50 in M)) stood at 9.42. In assay [7], this molecule displayed a −LogEC50 of VIP, maximum rate of cAMP accumulation (GloSensor), COS-7 cells transfected with VPAC1R, vehicle (Fig. 6E) (−LogEC50 (EC50 in M)) of 9.56 and a −LogEC50 of VIP, maximum rate of cAMP accumulation (GloSensor), COS-7 cells transfected with VPAC1R, with ATP 1.5 mM (Fig. 6E) (−LogEC50 (EC50 in M)) of 10.3. In assay [8], this molecule gave a −LogEC50 of VIP, maximum rate of cAMP accumulation (GloSensor), SaOS-2 cells (endogenous VPAC1R), vehicle (Fig. 6K) (−LogEC50 (EC50 in M)) of 8.35 and a −LogEC50 of VIP, maximum rate of cAMP accumulation (GloSensor), SaOS-2 cells (endogenous VPAC1R), with ATP 1.5 mM (Fig. 6K) (−LogEC50 (EC50 in M)) of 9.24.
